The target of the test is T1, HIR extracellular domain (ECD) (human, UniProt P06213 28-956, limits assumed).
T1 construct: extracellular domain; also called HIR ECD; human insulin receptor ECD
Kind of test: ELISA, plated HIR ECD, biotinylated goat anti-human IgG detection. As for the experimental part: The affinity of the fusion protein for the HIR extracellular domain (ECD) was determined with an ELISA using the lectin affinity purified HIR ECD. CHO cells permanently transfected with the HIR ECD were grown in serum free media (SFM), and the HIR ECD was purified with a wheat germ agglutinin affinity column. The HIR ECD (0.2 μg/well) was plated on Immulon 2 high binding 96-well plates, and the binding of the chimeric HIRMAb, the HIRMAb-TNFR fusion protein, or human IgG1 to the HIR ECD was detected with a biotinylated goat anti-human IgG (H+L) antibody (0.3 μg/well), and the avidin biotinylated peroxidase detection system.
A general note: ELISA stands for enzyme-linked immunosorbent assay.

The results in this text go back to patent publication US9533055 (ARMAGEN TECHNOLOGIES, dated 2017).

B1: chimeric HIRMAb (antibody, V domains shown)
VH: QVQLQQSGPELVKPGALVKISCKASGYTFTNYDIHWVKQRPGQGLEWIGWIYPGDGSTKYNEKFKGKATLTADKSSSTAYMHLSSLTSEKSAVYFCAREWAYWGQGTLVTVSA
VL: DIQMTQSPSSLSASLGERVSLTCRASQDIGGNLYWLQQGPDGTIKRLIYATSSLDSGVPKRFSGSRSGSDYSLTISSLESEDFVDYYCLQYSSSPWTFGGGTKMEIKR
notes: Human IgG1/kappa constant regions; also called MAb to HIR
Molecule B1 yielded an EC50 of 440 pM.

One may read the EC50 as the concentration at which the effect is half-maximal. Read a low EC50 as an effect from little substance.
